Results taken from publication PMC12386283, “Elucidating the Complex Structural and Molecular Mechanisms Driving P-Glycoprotein-Mediated Transport of Cardiac Glycosides” (International Journal of Molecular Sciences, 2025).

Legend:
[1] = test system: C[C@H]1O[C@@H](O[C@H]2[C@@H](O)C[C@H](O[C@H]3[C@@H](O)C[C@H](O[C@H]4CC[C@@]5(C)[C@H](CC[C@@H]6[C@@H]5CC[C@]5(C)[C@@H](C7=CC(=O)OC7)CC[C@]65O)C4)O[C@@H]3C)O[C@@H]2C)C[C@H](O)[C@@H]1O; assay: purified protein, by the assay type; conditions: other: 37 °C, 3.2 mM ATP, 50 nM proteoliposome, modified Michaelis-Menten fit, pH 7.4
Method: The Chifflet method is a colorimetric method that measures the amount of free inorganic phosphate (Pi) through the formation of ammonium molybdate and Pi complex, which produces a strong absorbance at 850 nm. The absorbance was measured on a 96-well plate using a CLARIOstar microplate reader (BMG Labtech, Ortenberg, Germany). […] The final concentrations of the proteoliposome and ATP were maintained at 50 nM and 3.2 mM, respectively. Orthovanadate was used as a control and run in parallel to the samples. Finally, the kinetic curves for ATPase activity were fit to a modified Michaelis-Menten equation (Equation (1)) [83]. Igor 6.2 Pro software (Wavemetrics, Tigard, OR, USA) was used for data analysis.(1) V=VmaxS/Km+S+Vbasal where V = Rate of ATP hydrolysis; Vmax = Maximum velocity of ATP hydrolysis; [S] = Substrate concentration; Km = Michaelis–Menten constant; and Vbasal = basal ATPase activity.

[2] = test system: C[C@]12CC[C@H](O)C[C@H]1CC[C@@H]1[C@@H]2C[C@@H](O)[C@]2(C)[C@@H](C3=CC(=O)OC3)CC[C@]12O; assay: purified protein, by the assay type; conditions: other: 37 °C, 3.2 mM ATP, 50 nM proteoliposome, modified Michaelis-Menten fit, pH 7.4

Sequence of wild-type mouse Pgp (MDR3) (Mus musculus) (chain, as listed by the source): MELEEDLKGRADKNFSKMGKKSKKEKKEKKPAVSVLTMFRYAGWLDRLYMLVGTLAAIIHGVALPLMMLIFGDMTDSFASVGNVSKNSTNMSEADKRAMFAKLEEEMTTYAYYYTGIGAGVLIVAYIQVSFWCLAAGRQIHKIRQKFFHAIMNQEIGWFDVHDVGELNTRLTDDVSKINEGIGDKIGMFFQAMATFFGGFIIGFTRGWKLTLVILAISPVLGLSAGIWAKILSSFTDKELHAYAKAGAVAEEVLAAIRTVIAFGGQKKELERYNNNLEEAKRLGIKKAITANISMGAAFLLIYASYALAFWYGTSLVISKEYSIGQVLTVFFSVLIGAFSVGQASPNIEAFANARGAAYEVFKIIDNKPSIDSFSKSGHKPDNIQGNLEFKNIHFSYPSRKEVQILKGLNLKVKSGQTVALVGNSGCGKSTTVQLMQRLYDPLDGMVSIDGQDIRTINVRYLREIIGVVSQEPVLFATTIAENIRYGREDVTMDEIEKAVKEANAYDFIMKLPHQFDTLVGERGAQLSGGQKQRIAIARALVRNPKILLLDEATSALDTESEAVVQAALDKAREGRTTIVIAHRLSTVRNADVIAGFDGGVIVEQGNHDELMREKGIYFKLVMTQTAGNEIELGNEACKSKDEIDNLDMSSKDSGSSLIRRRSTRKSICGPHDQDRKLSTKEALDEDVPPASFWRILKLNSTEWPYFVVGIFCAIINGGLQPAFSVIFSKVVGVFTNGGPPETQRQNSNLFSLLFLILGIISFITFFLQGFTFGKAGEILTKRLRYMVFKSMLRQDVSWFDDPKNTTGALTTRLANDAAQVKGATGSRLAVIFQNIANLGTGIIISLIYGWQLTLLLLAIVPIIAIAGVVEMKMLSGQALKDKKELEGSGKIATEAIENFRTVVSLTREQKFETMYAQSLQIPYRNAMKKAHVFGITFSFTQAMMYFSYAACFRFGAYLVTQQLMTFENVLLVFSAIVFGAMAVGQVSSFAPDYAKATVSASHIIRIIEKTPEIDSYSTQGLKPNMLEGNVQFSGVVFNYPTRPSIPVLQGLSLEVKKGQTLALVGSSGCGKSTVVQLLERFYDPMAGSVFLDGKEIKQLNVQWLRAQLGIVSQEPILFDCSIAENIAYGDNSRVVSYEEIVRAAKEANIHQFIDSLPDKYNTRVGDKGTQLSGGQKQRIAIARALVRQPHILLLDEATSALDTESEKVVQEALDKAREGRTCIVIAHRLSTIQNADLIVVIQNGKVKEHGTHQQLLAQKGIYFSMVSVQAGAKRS

## wild-type mouse Pgp (MDR3) (Mus musculus)
[1]
  Km: 99.19 ± 13.3 µM
[2]
  Km: 426.82 ± 173.26 µM
  Vmax: 541.92 ± 111 nmol/min/mg
